From the supplement of paper PMC10567573

B1: VAMP4 (parent)
chain: FLRGPSGPRFGPRNDKIKHVQNQV

Variants of: B1
Assay: protein stability index of a GFP-peptide fusion (GPS, HEK-293T) (PSI 1-6); higher = more stable
Conditions: c terminus: a fixed tail appended
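Further: lentivirally expressed fusions sorted by FACS into six bins by GFP to DsRed ratio, PSI derived from sequencing read proportions per bin multiplied by bin number.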

Variant	protein stability index
FLRGPSGPRFGPENDKIKHVQNQV	3.15
FLRGPSGPRFGPINDKIKHVQNQV	2.43
FLRGPSGPRFGPHNDKIKHVQNQV	2.17
FLRGPSGPRFGPGNDKIKHVQNQV	2.74
FLRGPSGPRFGPANDKIKHVQNQV	2.32
FLRGPSGPRFGPKNDKIKHVQNQV	2.58
FLRGPSGPRFGPFNDKIKHVQNQV	2.35
FLRGPSGPRFGPWNDKIKHVQNQV	1.87
FLRGPSGPRFGPDNDKIKHVQNQV	3.39
FLRGPSGPRFGPVNDKIKHVQNQV	2.62
FLRGPSGPRFGPLNDKIKHVQNQV	2.02
FLRGPSGPRFGPSNDKIKHVQNQV	3.11
FLRGPSGPRFGPCNDKIKHVQNQV	2.33
FLRGPSGPRFGPYNDKIKHVQNQV	2.31
FLRGPSGPRFGPMNDKIKHVQNQV	2.89
FLRGPSGPRFGPTNDKIKHVQNQV	2.8
FLRGPSGPRFGPPNDKIKHVQNQV	3.06
FLRGPSGPRFGPQNDKIKHVQNQV	3.6
FLRGPSGPRFGPNNDKIKHVQNQV	3.74
FLRGPSGPRFGPRCDKIKHVQNQV	2.73
FLRGPSGPRFGPRRDKIKHVQNQV	2.68
FLRGPSGPRFGPREDKIKHVQNQV	3.39
FLRGPSGPRFGPRYDKIKHVQNQV	2.04
FLRGPSGPRFGPRFDKIKHVQNQV	2.29

Variant	protein stability index
FLRGPSGPRFGPRWDKIKHVQNQV	2.25
FLRGPSGPRFGPRPDKIKHVQNQV	3.04
FLRGPSGPRFGPRDDKIKHVQNQV	2.96
FLRGPSGPRFGPRGDKIKHVQNQV	2.92
FLRGPSGPRFGPRHDKIKHVQNQV	2.73
FLRGPSGPRFGPRKDKIKHVQNQV	2.41
FLRGPSGPRFGPRQDKIKHVQNQV	2.91
FLRGPSGPRFGPRADKIKHVQNQV	2.35
FLRGPSGPRFGPRSDKIKHVQNQV	2.67
FLRGPSGPRFGPRIDKIKHVQNQV	2.2
FLRGPSGPRFGPRMDKIKHVQNQV	2.15
FLRGPSGPRFGPRTDKIKHVQNQV	2.7
FLRGPSGPRFGPRLDKIKHVQNQV	2.55
FLRGPSGPRFGPRVDKIKHVQNQV	2.73
FLRGPSGPRFGVRNDKIKHVQNQV	2.86
FLRGPSGPRFGIRNDKIKHVQNQV	2.87
FLRGPSGPRFGARNDKIKHVQNQV	2.54
FLRGPSGPRFGMRNDKIKHVQNQV	2.61
FLRGPSGPRFGKRNDKIKHVQNQV	2.89
FLRGPSGPRFGNRNDKIKHVQNQV	3.12
FLRGPSGPRFGTRNDKIKHVQNQV	3.37
FLRGPSGPRFGYRNDKIKHVQNQV	2.75
FLRGPSGPRFGWRNDKIKHVQNQV	1.88
FLRGPSGPRFGCRNDKIKHVQNQV	2.13

Variant	protein stability index
FLRGPSGPRFGERNDKIKHVQNQV	3.63
FLRGPSGPRFGDRNDKIKHVQNQV	3.08
FLRGPSGPRFGRRNDKIKHVQNQV	2.59
FLRGPSGPRFGQRNDKIKHVQNQV	2.34
FLRGPSGPRFGGRNDKIKHVQNQV	2.99
FLRGPSGPRFGSRNDKIKHVQNQV	3.27
FLRGPSGPRFGHRNDKIKHVQNQV	2.75
FLRGPSGPRFGLRNDKIKHVQNQV	2.2
FLRGPSGPRFGFRNDKIKHVQNQV	2.7
FLRGPSGPRFGPRNDKIKSVQNQV	2.7
FLRGPSGPRFGPRNDKIKLVQNQV	2.72
FLRGPSGPRFGPRNDKIKMVQNQV	2.6
FLRGPSGPRFGPRNDKIKKVQNQV	2.35
FLRGPSGPRFGPRNDKIKVVQNQV	2.95
FLRGPSGPRFGPRNDKIKFVQNQV	1.8
FLRGPSGPRFGPRNDKIKRVQNQV	2.03
FLRGPSGPRFGPRNDKIKIVQNQV	2.55
FLRGPSGPRFGPRNDKIKTVQNQV	1.54
FLRGPSGPRFGPRNDKIKWVQNQV	1.57
FLRGPSGPRFGPRNDKIKQVQNQV	2.42
FLRGPSGPRFGPRNDKIKGVQNQV	2.86
FLRGPSGPRFGPRNDKIKYVQNQV	1.93
FLRGPSGPRFGPRNDKIKAVQNQV	2.81
FLRGPSGPRFGPRNDKIKEVQNQV	2.7

Variant	protein stability index
FLRGPSGPRFGPRNDKIKHDQNQV	3.72
FLRGPSGPRFGPRNDKIKHLQNQV	2.9
FLRGPSGPRFGPRNDKIKHRQNQV	3.26
FLRGPSGPRFGPRNDKIKHHQNQV	3.3
FLRGPSGPRFGPRNDKIKHEQNQV	3.91
FLRGPSGPRFGPRNDKIKHQQNQV	2.24
FLRGPSGPRFGPRNDKIKHNQNQV	2.91
FLRGPSGPRFGPRNDKIKHGQNQV	2.62
FLRGPSGPRFGPRNDKIKHAQNQV	2.63
FLRGPSGPRFGPRNDKIKHCQNQV	2.15
FLRGPSGPRFGPRNDKIKHKQNQV	3.23
FLRGPSGPRFGPRNDKIKHIQNQV	2.69
FLRGPSGPRFGPRNKKIKHVQNQV	2.23
FLRGPSGPRFGPRNEKIKHVQNQV	3
FLRGPSGPRFGPRNTKIKHVQNQV	2.26
FLRGPSGPRFGPRNHKIKHVQNQV	3.02
FLRGPSGPRFGPRNQKIKHVQNQV	2.5
FLRGPSGPRFGPRNSKIKHVQNQV	2.19
FLRGPSGPRFGPRNWKIKHVQNQV	1.39
FLRGPSGPRFGPRNYKIKHVQNQV	2.1
FLRGPSGPRFGPRNAKIKHVQNQV	2.6
FLRGPSGPRFGPRNGKIKHVQNQV	2.08
FLRGPSGPRFGPRNVKIKHVQNQV	2.85
FLRGPSGPRFGPRNNKIKHVQNQV	2.7

Variant	protein stability index
FLRGPSGPRFGPRNCKIKHVQNQV	2.5
FLRGPSGPRFGPRNLKIKHVQNQV	2.17
FLRGPSGPRFGPRNRKIKHVQNQV	2.69
FLRGPSGPRFGPRNIKIKHVQNQV	3.2
FLRGPSGPRFGPRNFKIKHVQNQV	2.01
FLRGPSGPRFGPRNPKIKHVQNQV	3.23
FLRGPSGPRFGPRNMKIKHVQNQV	2.05
FLRGPSGPRFIPRNDKIKHVQNQV	2.12
FLRGPSGPRFQPRNDKIKHVQNQV	2.78
FLRGPSGPRFDPRNDKIKHVQNQV	2.63
FLRGPSGPRFPPRNDKIKHVQNQV	2.91
FLRGPSGPRFTPRNDKIKHVQNQV	2.18
FLRGPSGPRFVPRNDKIKHVQNQV	1.97
FLRGPSGPRFKPRNDKIKHVQNQV	2.57
FLRGPSGPRFLPRNDKIKHVQNQV	2.47
FLRGPSGPRFAPRNDKIKHVQNQV	2.75
FLRGPSGPRFNPRNDKIKHVQNQV	2.95
FLRGPSGPRFCPRNDKIKHVQNQV	2.37
FLRGPSGPRFSPRNDKIKHVQNQV	2.65
FLRGPSGPRFHPRNDKIKHVQNQV	2.81
FLRGPSGPRFFPRNDKIKHVQNQV	2.2
FLRGPSGPRFRPRNDKIKHVQNQV	2.34
FLRGPSGPRFMPRNDKIKHVQNQV	2.52
FLRGPSGPRFEPRNDKIKHVQNQV	3.51

Variant	protein stability index
FLRGPSGPRFWPRNDKIKHVQNQV	2.45
FLRGPSGPRFYPRNDKIKHVQNQV	2.16
FLRGPSGPRFGPRNDPIKHVQNQV	2.76
FLRGPSGPRFGPRNDVIKHVQNQV	2.46
FLRGPSGPRFGPRNDQIKHVQNQV	3.11
FLRGPSGPRFGPRNDSIKHVQNQV	2.81
FLRGPSGPRFGPRNDNIKHVQNQV	3.18
FLRGPSGPRFGPRNDFIKHVQNQV	2.25
FLRGPSGPRFGPRNDCIKHVQNQV	2.18
FLRGPSGPRFGPRNDTIKHVQNQV	2.74
FLRGPSGPRFGPRNDWIKHVQNQV	1.86
FLRGPSGPRFGPRNDIIKHVQNQV	2.15
FLRGPSGPRFGPRNDEIKHVQNQV	3.18
FLRGPSGPRFGPRNDGIKHVQNQV	3.33
FLRGPSGPRFGPRNDDIKHVQNQV	3.13
FLRGPSGPRFGPRNDAIKHVQNQV	3
FLRGPSGPRFGPRNDLIKHVQNQV	2.34
FLRGPSGPRFGPRNDHIKHVQNQV	2.48
FLRGPSGPRFGPRNDYIKHVQNQV	2.28
FLRGPSGPRFGPRNDRIKHVQNQV	2.75
FLRGPSGPRFGPRNDMIKHVQNQV	2.42
FLRGPSGPRFGPRNDKIHHVQNQV	2.73
FLRGPSGPRFGPRNDKIWHVQNQV	1.48
FLRGPSGPRFGPRNDKICHVQNQV	2.04

Variant	protein stability index
FLRGPSGPRFGPRNDKIAHVQNQV	3.24
FLRGPSGPRFGPRNDKIDHVQNQV	2.74
FLRGPSGPRFGPRNDKIYHVQNQV	2.15
FLRGPSGPRFGPRNDKIPHVQNQV	3.1
FLRGPSGPRFGPRNDKITHVQNQV	2.47
FLRGPSGPRFGPRNDKIQHVQNQV	3.34
FLRGPSGPRFGPRNDKIIHVQNQV	2.31
FLRGPSGPRFGPRNDKINHVQNQV	2.83
FLRGPSGPRFGPRNDKIRHVQNQV	1.75
FLRGPSGPRFGPRNDKIEHVQNQV	3.06
FLRGPSGPRFGPRNDKIMHVQNQV	2.27
FLRGPSGPRFGPRNDKIGHVQNQV	2.88
FLRGPSGPRFGPRNDKILHVQNQV	1.93
FLRGPSGPRFGPRNDKIVHVQNQV	2.91
FLRGPSGPRFGPRNDKISHVQNQV	3.11
FLRGPSGPRFGPRNDKVKHVQNQV	2.5
FLRGPSGPRFGPRNDKEKHVQNQV	4.11
FLRGPSGPRFGPRNDKDKHVQNQV	3.57
FLRGPSGPRFGPRNDKNKHVQNQV	3.54
FLRGPSGPRFGPRNDKQKHVQNQV	2.72
FLRGPSGPRFGPRNDKPKHVQNQV	2.84
FLRGPSGPRFGPRNDKKKHVQNQV	2.81
FLRGPSGPRFGPRNDKRKHVQNQV	3
FLRGPSGPRFGPRNDKFKHVQNQV	2.81

Variant	protein stability index
FLRGPSGPRFGPRNDKCKHVQNQV	2.87
FLRGPSGPRFGPRNDKHKHVQNQV	3.42
FLRGPSGPRFGPRNDKTKHVQNQV	3.16
FLRGPSGPRFGPRNDKSKHVQNQV	2.34
FLRGPSGPRFGPRNDKWKHVQNQV	1.53
FLRGPSGPRFGPRNDKAKHVQNQV	2.88
FLRGPSGPRFGPRNDKLKHVQNQV	2.78
FLRGPSGPRSGPRNDKIKHVQNQV	2.86
FLRGPSGPRRGPRNDKIKHVQNQV	3.15
FLRGPSGPRWGPRNDKIKHVQNQV	2.09
FLRGPSGPRQGPRNDKIKHVQNQV	3.14
FLRGPSGPRPGPRNDKIKHVQNQV	3.02
FLRGPSGPRMGPRNDKIKHVQNQV	3.24
FLRGPSGPRLGPRNDKIKHVQNQV	3.21
FLRGPSGPRVGPRNDKIKHVQNQV	2.67
FLRGPSGPRTGPRNDKIKHVQNQV	3.36
FLRGPSGPRIGPRNDKIKHVQNQV	2.99
FLRGPSGPRYGPRNDKIKHVQNQV	2.27
FLRGPSGPRNGPRNDKIKHVQNQV	2.95
FLRGPSGPRKGPRNDKIKHVQNQV	2.57
